# Experimental data from PMC4282169.
# Experiments:
# [1] = substrate: O=[N+]([O-])c1ccc(O[C@@H]2O[C@@H](CO)[C@H](O)[C@H]2O)cc1; test: 4-nitrophenolate release, A410; format: biochemical, Bacteroides ovatus; details: 37 °C, 50 mM buffer at or near pH optimum (6.0-7.0)
# [2] = substrate: O=[N+]([O-])c1ccc(O[C@@H]2OC[C@@H](O)[C@H](O)[C@H]2O)cc1; test: 4-nitrophenolate release, A410; format: biochemical, Bacteroides ovatus; details: 37 °C, 50 mM buffer at or near pH optimum (6.0-7.0)
# [3] = substrate: O=[N+]([O-])c1ccc(O[C@@H]2O[C@H](CO)[C@H](O)[C@H](O)[C@H]2O)cc1; test: purified protein; details: 37 °C, 50 mM buffer at or near pH optimum (6.0-7.0)
# [4] = substrate: O=[N+]([O-])c1ccc(O[C@@H]2O[C@H](CO)[C@@H](O[C@@H]3O[C@H](CO)[C@@H](O[C@@H]4O[C@H](CO)[C@@H](O[C@@H]5O[C@H](CO)[C@@H](O)[C@H](O)[C@H]5O)[C@H](O)[C@H]4O)[C@H](O)[C@H]3O)[C@H](O)[C@H]2O)c(Cl)c1; test: 2-chloro-4-nitrophenolate release, A405, continuous; format: biochemical, Bacteroides ovatus; details: 37 °C, 50 mM buffer at or near pH optimum (6.0-7.0)
# [5] = substrate: O=[N+]([O-])c1ccc(O[C@@H]2O[C@H](CO)[C@@H](O[C@@H]3O[C@H](CO[C@H]4OC[C@@H](O)[C@H](O)[C@H]4O)[C@@H](O[C@@H]4O[C@H](CO[C@H]5OC[C@@H](O)[C@H](O)[C@H]5O)[C@@H](O[C@@H]5O[C@H](CO[C@H]6OC[C@@H](O)[C@H](O)[C@H]6O)[C@@H](O)[C@H](O)[C@H]5O)[C@H](O)[C@H]4O)[C@H](O)[C@H]3O)[C@H](O)[C@H]2O)c(Cl)c1; test: as above; format: biochemical, Bacteroides ovatus; details: 37 °C, 50 mM buffer at or near pH optimum (6.0-7.0)
# [6] = substrate: OC[C@H]1O[C@@H](O[C@H]2[C@@H](OC[C@H]3O[C@@H](O[C@H]4[C@H](O)[C@@H](O)[C@H](O[C@H]5[C@H](O)[C@@H](O)C(O)O[C@@H]5CO)O[C@@H]4CO[C@H]4OC[C@@H](O)[C@H](O)[C@H]4O[C@@H]4O[C@H](CO)[C@H](O)[C@H](O)[C@H]4O)[C@H](O)[C@@H](O)[C@@H]3O[C@@H]3O[C@H](CO[C@H]4OC[C@@H](O)[C@H](O)[C@H]4O)[C@@H](O)[C@H](O)[C@H]3O)OC[C@@H](O)[C@@H]2O)[C@H](O)[C@@H](O)[C@H]1O; test: HPLC; format: biochemical, Bacteroides ovatus; details: 37 °C, 50 mM buffer at or near pH optimum (6.0-7.0)
# [7] = substrate: O=[N+]([O-])c1ccc(O[C@H]2O[C@H](CO)[C@@H](O)[C@H](O)[C@H]2O)cc1; test: purified protein; details: 37 °C, 50 mM buffer at or near pH optimum (6.0-7.0)
# [8] = substrate: O=[N+]([O-])c1ccc(O[C@H]2OC[C@@H](O)[C@H](O)[C@H]2O)cc1; test: 4-nitrophenolate release, A410; format: biochemical, Bacteroides ovatus; details: 37 °C, 50 mM buffer at or near pH optimum (6.0-7.0)
# [9] = substrate: O=[N+]([O-])c1ccc(O[C@@H]2O[C@@H](CO)[C@H](O)[C@H]2O)cc1; test: continuous 4-nitrophenolate release; format: biochemical, Bacteroides ovatus; details: 37 °C, pH 7.0
# [10] = substrate: O=[N+]([O-])c1ccc(O[C@@H]2O[C@H](CO)[C@@H](O)[C@H](O)[C@H]2O)cc1; test: purified protein; details: 37 °C, 50 mM buffer at or near pH optimum (6.0-7.0)
protein,measurement,setting,value
BoGH43A (Bacteroides ovatus ATCC 8483) (protein) QGYSNPVIPGFHPDPSVCKAGDDYYLVNSSFQYFPGVPLFHSKDLVHWEQIGNCLTRPSQLDLTNANSGSGIFAPTIRYNDGVFYMITTNVSGKGNFLVHTTDPRSEWSEPVWLEQGGIDPSLYFEDGKCFMVSNPDGYINLCEIDPMTGKQLSSSKRIWNGTGGRYAEGPHIYKKDGWYYLLISEGGTELGHKVTIARSRYIDGPYQGNPANPILTHANESGQSSPIQGTGHADLVEGTDGSWWMVCLAYRIMPGTHHTLGRETYLAPVRWDKDAWPVVNSNGTISLKMDVPTLPQQEMKGRPERIDFKEGKLSPEWIHLQNPEAKNYIFTKDGKLRLIATPVTLSDWKSPTFVALRQEHFDMEASAPVVLQKAGVNDEAGISVFMEFHSHYDLFVRQDKDRKRSVGLRYKLGEITHYAKEVSLPTDGEVELVVKSDINYYYFGYKVNGIYHDLGKMNTRYLSTETAGGFTGVVLGLYITSASKDSKAYADFEYFKYKGKPGENK,Km,[1],710 ± 30 µM
same,kcat,[1],0.057 ± 0.001 s⁻¹
same,kcat/Km,[1],81 M⁻¹ s⁻¹
same,Km,[2],6580 ± 210 µM
same,kcat,[2],0.26 ± 0.005 s⁻¹
same,kcat/Km,[2],39 M⁻¹ s⁻¹
BoGH2A (Bacteroides ovatus ATCC 8483) (protein) LALGGCLMLLGACSSSSLVSPRERSDFNADWRFHLGDGLQAAQPGFADNDWRVLDLPHDWAIEGDFSQENPSGTGGGALPGGVGWYRKTFSVDKADAGKIFRIEFDGVYMNSEVFINGVSLGVRPYGYISFSYDLTPYLKWDEPNVLAVRVDNAEQPNSRWYSGCGIYRNVWLSKTGPIHVGGWGTYVTTSSVDEKQAVLNLATTLVNESDTNENVTVCSSLQDAEGREVAETRSSGEAEAGKEVVFTQQLTVKQPQLWDIDTPYLYTLVTKVMRNEECMDRYTTPVGIRTFSLDARKGFTLNGRQTKINGVCMHHDLGCLGAAVNTRAIERHLQILKEMGCNGIRCSHNPPAPELLDLCDRMGFIVMDEAFDMWRKKKTAHDYARYFNEWHERDLNDFILRDRNHPSVFMWSIGNEVLEQWSDAKADTLSLEEANLILNFGHSSEMLAKEGEESVNSLLTKKLVSFVKGLDPTRPVTAGCNEPNSGNHLFRSGVLDVIGYNYHNKDIPNVPANFPDKPFIITESNSALMTRGYYRMPSDRMFIWPKRWDKSFADSTFACSSYENCHVPWGNTHEESLKLVRDNDFISGQYVWTGFDYIGEPTPYGWPARSSYFGIVDLAGFPKDVYYLYQSEWTDKQVLHLFPHWNWTPGQEIDMWCYYNQADEVELFVNGKSQGVKRKDLDNLHVAWRVKFEPGTVKVIARESGKVVAEKEICTAGKPAEIRLTPDRSILTADGKDLCFVTVEVLDEKGNLCPDADNLVNFTVQGNGFIAGVDNGNPVSMERFKDEKRKAFYGKCLVVIQNDGKPGKAKLTATSEGLRQAVLKISAEEL,Km,[3],87 ± 7.4 µM
same,kcat,[3],4 s⁻¹
same,kcat/Km,[3],46000 M⁻¹ s⁻¹
BoGH5A (Bacteroides ovatus ATCC 8483) (protein) SNSDEKGGSLEVAQEYRNLEFDARGSRQTIQIDGPAEWHISTSESWCKSSHTIGEGKQYVNITVEANDTQKERTATVTVSASGAPDIIINVKQSLYSVPAYDEYIAPDNTGMRDLTSMQLSALMKAGVNVGNTFEAVIVGNDGSLSGDETCWGNPTPNKVLFEGIKAAGFDVVRIPVAYSHQFEDAATYKIKSAWMDKVEAAVKAALDAGLYVIINIHWEGGWLNHPVDANKEALDERLEAMWKQIALRFRDYDDRLLFAGTNEVNNDDANGAQPTEENYRVQNGFNQVFVNTVRATGGRNHYRHLIVQAYNTDVAKAVAHFTMPLDIVQNRIFLECHYYDPYDFTIMPNDENFKSQWGAAFAGGDVSATGQEGDIEATLSSLNVFINNNVPVIIGEYGPTLRDQLTGEALENHLKSRNDYIEYVVKTCVKNKLVPLYWDAGYTEKLFDRTTGQPHNAASIAAIMKGLN,Km,[4],3590 ± 1270 µM
same,kcat,[4],0.12 ± 0.025 s⁻¹
same,kcat/Km,[4],34 M⁻¹ s⁻¹
same,Km,[5],36 ± 2.7 µM
same,kcat,[5],10.5 ± 0.14 s⁻¹
same,kcat/Km,[5],292000 M⁻¹ s⁻¹
BoGH31A (Bacteroides ovatus ATCC 8483) (protein) SNKVYEKTGDSVIVKVQHKETGGPRLVRLQVMGDKLIHVSATADSKFADPQSLIVVPQKKQTSFAVVQNGDTITVSTEEVKASVLASTGEVWFTDKNGELILQENKGGGKTFTPIEVEGTKGYTVCQVFESPEDEAFYGLGQHQADEFNYKGKNEELFQYNTKVSVPFVVSNKNYGILLDSYSFCRFGNPNDYSQLNRIFKLYDKTGQEGALTGTYVPKKGETLVRREDSIYFENLKTIENLPKKLPLMGAKVTYEGEIEPAQTGEFKFILYYAGYVKVYLNNEPVVPERWRTAWNPNSYKFAAHLEAGKRVPLKIEWQPDGGQSYCGLRALTPVNPEEQGKQSWWSEMTKQLDYYFMAGENMDDVISGYRSLTGKSPVMPKWAMGFWQSREKYNTQEEMLGALKGFRDRKIPLDNIVLDWNHWPENAWGSHEFDKARFPDPKAMVDSIHAMHARMMISVWPKFYVTTEHFKEFDENGWMYQQSVKDSLKDWVGPGYHYGFYDAYDPDARKLFWKQMYEHYYPLGIDAWWMDASEPNVRDCTDLEYRKALCGPTALGSSTEFFNAYALMNAEAIYDGQRGVDNNKRVFLLTRSGFAGLQRYSTATWSGDIGTRWEDMKAQISAGLNFAMSGIPYWTMDIGGFCVENRYVAGQKQWNATKTENADYKEWRELNTRWYQFGAFVPLYRAHGQYPFREIWEIAPEGHPAYQSVVYYTKLRYNMMPYIYSLAGMTWFDDYTIMRPLVMDFTADAEVNDIGDQFMFGPSFMVSPVYRYGDRSREIYFPQAEGWYDFYSGKFQAGGERKVIEAPYERIPLYVRAGAIIPFGDDIQYTDEKPAEHIRLYIYQGADGEFTLYEDEGVNYNYEQGMYAMIPMKYDEATKTLVIGERQGEFPGMLKERTFTVVTVNKEKAQPFDLNAKGVTVKYNGSEQTLKL,Km,[6],378 ± 75 µM
same,kcat,[6],31 ± 1.9 s⁻¹
same,kcat/Km,[6],82000 M⁻¹ s⁻¹
same,Km,[7],31800 ± 5100 µM
same,kcat,[7],0.071 s⁻¹
same,kcat/Km,[7],2.2 M⁻¹ s⁻¹
same,Km,[8],7700 ± 273 µM
same,kcat,[8],1.6 ± 0.031 s⁻¹
same,kcat/Km,[8],210 M⁻¹ s⁻¹
BoGH43B (Bacteroides ovatus ATCC 8483) (protein) QKTFRNPIITGMNPDPSICRVGDDFYLVTSTFEYFPGLPVYHSKDLVHWKLIGHALSRPENNPLMGCNASTGGQYAPTLRYHDGTFYVIGTNYGGKGSQGVFYVTAKNPAGPWSDPVWVGNWYVDPSIEFIDGKMYFLSPDNQGSFLLGVMDPETGTFVEALRKVASGLGGSSPEGPHFYKIGDYYYIMSAEGGTGYEHREVIQRSKSPWGPYEPSPVNPVLSNMNCPDHPFQAIGHADLVQLKDGSWWAVCLGIRPVNGKYQHLGRETFLAPVTWDADGWPKVGKDGVVQETYLFPNLPSHVWMEQPVRDDFDQETLGLDWTFIRNPAHSFWSLTEKPGSLRLKGTAINFTTNDSPSFIGRRQAAFNLTASAKVNFIPKVENEEAGLVVRADDKNHYDLLITERNGQRVAMIRKTLKDKVVDTTCKELPATGEVILSITATETTYTFEIKAAHVSAILGTASTRDVSNEVVGGFTGVFIGMYASGNGQANTNPADFDWFDFRCLD,Km,[9],6600 ± 2300 µM
same,kcat,[9],0.0005 ± 8.1e-05 s⁻¹
same,kcat/Km,[9],0.076 M⁻¹ s⁻¹
BoGH3B (Bacteroides ovatus ATCC 8483) (protein) QTASPVIPTDPAIETHIREWLQKMTLEQKIGQMCEITIDVVSDLETSRKKGFCLSEAMLDTVIGKYKVGSLLNVPLGVAQKKEKWAEAIKQIQEKSMKEIGIPCIYGVDQIHGTTYTLDGTMFPQGINMGATFNRELTRRGAKISAYETKAGCIPWTFAPVVDLGRDPRWARMWENYGEDCYVNAEMGVSAVKGFQGEDPNRIGEYNVAACMKHYMGYGVPVSGKDRTPSSISRSDMREKHFAPFLAAVRQGALSVMVNSGVDNGLPFHANRELLTEWLKEDLNWDGLIVTDWADINNLCTRDHIAATKKEAVKIVINAGIDMSMVPYEVSFCDYLKELVEEGEVSMERIDDAVARVLRLKYRLGLFDHPYWDIKKYDKFGSKEFAAVALQAAEESEVLLKNDGNILPIAKGKKILLTGPNANSMRCLNGGWSYSWQGHVADEYAQAYHTIYEALCEKYGKENIIYEPGVTYASYKNDNWWEENKPETEKPVAAAAQADIIITCIGENSYCETPGNLTDLTLSENQRNLVKALAATGKPIVLVLNQGRPRIINDIVPLAKAVVNIMLPSNYGGDALANLLAGDANFSGKMPFTYPRLINALATYDYKPCENMGQMGGNYNYDSVMDIQWPFGFGLSYTNYKYSNLKVNKPTFNADDELIFTVDVTNTGKVAGKESVLLFSKDLVASSTPDNIRLRNFEKVSLEPGETKTVTLKLKGSDLAFVGYDGKWRLEKGDFKIKCGDQWMDIVCDQTKVWNTPNKNTLHK,Km,[10],155 ± 39 µM
same,kcat,[10],1.74 s⁻¹
same,kcat/Km,[10],11200 M⁻¹ s⁻¹
